How the values were obtained:
StpA (Escherichia coli) = biological target: T1, StpA (Escherichia coli) (UniProt P0ACG1); assay: filter binding
T1 sequence: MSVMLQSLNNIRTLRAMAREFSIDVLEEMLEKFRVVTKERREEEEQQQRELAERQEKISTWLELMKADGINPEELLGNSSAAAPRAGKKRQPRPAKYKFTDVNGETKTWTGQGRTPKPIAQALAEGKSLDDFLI

[1] = tested on: G126V-StpA (Escherichia coli); assay: filter binding
StpA [2] = biological target: T2, StpA (Escherichia coli, UniProt P0ACG1 1-134); assay: filter binding
T2 sequence: T1 sequence

StpA [3] = biological target: T2, StpA; assay: filter binding; remark: listed apart in the source
StpA [4] = biological target: T2, StpA; assay: FRET

How did the Kd (StpA (Escherichia coli)) turn out when sho-sho td pre-mRNA was run?
Its Kd is 730 nM.

And the binding signal (StpA (Escherichia coli))?
The binding signal was 17 % bound.

sho-sho tdC865U pre-mRNA was tested. Which binding signal [1] did it give?
The binding signal was 7 % bound.

What about the binding signal (StpA (Escherichia coli)) of the same molecule?
Its binding signal is 27 % bound.

Which Kd (StpA (Escherichia coli)) does the source give for td mRNA (intronless) here?
The Kd was 580 nM.

How did the binding signal (StpA (Escherichia coli)) turn out when td ribozyme RNA was run?
Its binding signal is 70 % bound.

B1: 21R+ (ssRNA)
RNA: AUGUGGAAAAUCUCUAGCAGU
Does B1 bind (StpA [2])?
Result: binds

B2: 21R+/21R- duplex (dsRNA)
RNA 1: AUGUGGAAAAUCUCUAGCAGU
RNA 2: ACUGCUAGAGAUUUUCCACAU
Does B2 bind (StpA [3])?
Result: no binding

B3: 21R+ and duplex- (non-complementary pair) (ssRNA)
RNA 1: AUGUGGAAAAUCUCUAGCAGU
RNA 2: CUUUCAUUGGUCGGUCUCUCC
Does B3 bind (StpA [4])?
Result: binds

— publication PMC1851640
